Blank lines part the entries; values can stand above or below the molecule they belong to. Non-standard residues stand in square brackets, D forms with d. No end group written: not given here. ACPC = cyclic beta amino acid; APC = cyclic beta amino acid
Key:
AKT = AKT (Homo sapiens, UniProt P31749); details: read-out: Ki, competitive inhibition of histone H2B phosphorylation by AKT; cited from earlier work
VIPR2 = biological target: T1, VIPR2 (Homo sapiens, UniProt P41587); test: cAMP Hunter cell line, HitHunter cAMP XS+ assay, agonist mode; type: cell-based
T1 sequence (P41587 24-438): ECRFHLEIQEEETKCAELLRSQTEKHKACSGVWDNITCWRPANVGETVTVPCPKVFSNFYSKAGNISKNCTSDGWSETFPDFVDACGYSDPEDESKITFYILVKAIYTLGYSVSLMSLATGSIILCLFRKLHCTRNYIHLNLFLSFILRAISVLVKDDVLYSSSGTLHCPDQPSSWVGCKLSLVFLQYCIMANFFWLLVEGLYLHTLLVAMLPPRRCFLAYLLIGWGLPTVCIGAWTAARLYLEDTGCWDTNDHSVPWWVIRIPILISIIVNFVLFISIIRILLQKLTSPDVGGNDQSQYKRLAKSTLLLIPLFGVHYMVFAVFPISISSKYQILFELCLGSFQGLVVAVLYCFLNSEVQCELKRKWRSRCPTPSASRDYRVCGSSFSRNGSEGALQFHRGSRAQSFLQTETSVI
Experimental: (§1) Once it was established that the cells were healthy and growing normally, cells were passaged from flasks using cell dissociation reagent buffer and seeded into white walled clear bottom 384-well microplates for compound profiling. For profiling, cells were seeded at a density of 10,000 cells per well in a total volume of 20 μL and were allowed to adhere and recover overnight prior to compound addition. cAMP modulation was determined using the DiscoveRx HitHunter cAMP XS+ assay.
(§2) For profiling compound in agonist mode, the cells were incubated in the presence of compound at 37° C. for 30 minutes. […] After appropriate compound incubation, assay signal was generated through incubation with DiscoverX lysis cocktail according to the manufacturers standard protocol. Dose curves were plotted using GraphPad Prism or Activity Base. Percentage activity is calculated using the following formula: % Activity=100%×(mean RLU of test sample−mean RLU of vehicle control)/(mean RLU of MAX control−mean RLU of vehicle control).

VIPR1 = biological target: T2, VIPR1 (Homo sapiens, UniProt P32241); test: as above; type: cell-based; details: for % Activity / Mean RLU: VIPR1 cells, cAMP
T2 sequence (P32241 31-457): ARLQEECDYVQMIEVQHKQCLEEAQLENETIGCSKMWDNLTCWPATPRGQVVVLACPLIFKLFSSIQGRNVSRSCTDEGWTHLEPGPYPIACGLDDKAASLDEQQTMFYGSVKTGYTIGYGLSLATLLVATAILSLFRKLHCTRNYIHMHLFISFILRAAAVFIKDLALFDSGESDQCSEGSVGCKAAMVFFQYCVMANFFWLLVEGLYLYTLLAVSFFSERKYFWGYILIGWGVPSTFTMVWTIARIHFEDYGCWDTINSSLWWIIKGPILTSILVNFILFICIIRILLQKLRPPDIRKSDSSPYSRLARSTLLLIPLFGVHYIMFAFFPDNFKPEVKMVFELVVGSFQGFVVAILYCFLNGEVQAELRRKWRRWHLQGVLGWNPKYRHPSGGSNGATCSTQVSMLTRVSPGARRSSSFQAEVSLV
Experimental: as §1, §2

[1] = biological target: VIPR2 (VPAC2) receptor, cAMP Hunter cell line expressing VIPR2 (UniProt P41587); test: cell-based or functional assay
[2] = biological target: T3, VIPR1 (VPAC1) receptor, cAMP Hunter cell line expressing VIPR1 (UniProt P32241 31-457, limits assumed); test: cell-based or functional assay
T3 sequence (looked up): T2 sequence (P32241 31-457)

Sequence of AKT (P31749 whole entry): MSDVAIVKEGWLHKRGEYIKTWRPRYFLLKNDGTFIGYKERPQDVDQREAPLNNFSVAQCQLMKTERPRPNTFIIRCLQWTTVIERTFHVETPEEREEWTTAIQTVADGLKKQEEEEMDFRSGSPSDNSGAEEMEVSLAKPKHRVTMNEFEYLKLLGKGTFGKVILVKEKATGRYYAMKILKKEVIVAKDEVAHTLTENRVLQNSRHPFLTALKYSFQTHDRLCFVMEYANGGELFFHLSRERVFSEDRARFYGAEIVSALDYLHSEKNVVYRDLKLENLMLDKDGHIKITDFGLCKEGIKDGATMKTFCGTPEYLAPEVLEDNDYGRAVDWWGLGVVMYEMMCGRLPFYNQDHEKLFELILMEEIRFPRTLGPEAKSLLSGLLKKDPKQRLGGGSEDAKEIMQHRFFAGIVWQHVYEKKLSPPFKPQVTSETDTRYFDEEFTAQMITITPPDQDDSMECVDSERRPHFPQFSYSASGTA

Molecule: 5-TMR-ARKRERTYSFGHHA ({5‑TMR}-ARKRERTYSFGHHA)
Ki (AKT): 12 µM

activation of VIPR2 (VIPR2; FIG. 3): not activate VIPR2 | % Activity (VIPR1; 1.03E−07 M compound): 91.7% | % Activity (VIPR1; 1.03E−08 M compound): 1.5% | Mean RLU (VIPR1; 1.03E−08 M compound): 13700.0 RLU | % Activity (VIPR1; 1.03E−09 M compound): −1.4% | Mean RLU (VIPR1; 1.03E−09 M compound): 13500.0 RLU | % Activity (VIPR1; 1.03E−10 M compound): −2.9% | Mean RLU (VIPR1; 1.03E−10 M compound): 9960.0 RLU | % Activity (VIPR1; 1.03E−11 M compound): −1.5% | Mean RLU (VIPR1; 1.03E−11 M compound): 10500.0 RLU | % Activity (VIPR1; 1.03E−12 M compound): −1.7% | Mean RLU (VIPR1; 1.03E−12 M compound): 10340.0 RLU | % Activity (VIPR1; 5.03E−07 M compound): 99.5% | % Activity (VIPR1; 5.03E−08 M compound): 83.9% | % Activity (VIPR1; 5.03E−09 M compound): 1.2% | Mean RLU (VIPR1; 5.03E−09 M compound): 13200.0 RLU | % Activity (VIPR1; 5.03E−10 M compound): −2.2% | Mean RLU (VIPR1; 5.03E−10 M compound): 9520.0 RLU | activation of VIPR1 (VIPR1; FIG. 3): fully activate VIPR1
Molecule: CC[C@H](C)[C@H](NC(=O)[C@H]1CCC[C@@H]1NC(=O)[C@H](CC(N)=O)NC(=O)[C@H](CC(C)C)NC(=O)[C@H](Cc1ccc(O)cc1)NC(=O)[C@H]1CNC[C@@H]1NC(=O)[C@H](CCCCN)NC(=O)[C@@H](NC(=O)[C@H]1CCC[C@@H]1NC(=O)[C@H](CC(C)C)NC(=O)[C@H](CCC(N)=O)NC(=O)[C@H](CCCCN)NC(=O)[C@H]1CNC[C@@H]1NC(=O)[C@H](CC(C)C)NC(=O)[C@H](CCCNC(=N)N)NC(=O)[C@H]1CCC[C@@H]1NC(=O)[C@H](Cc1ccc(O)cc1)NC(=O)[C@H](CC(N)=O)NC(=O)[C@H](CC(=O)O)NC(=O)[C@@H](NC(=O)[C@H](Cc1ccccc1)NC(=O)[C@@H](NC(=O)[C@H](C)NC(=O)[C@H](CC(=O)O)NC(=O)[C@H](CO)NC(=O)[C@@H](N)Cc1c[nH]cn1)C(C)C)[C@@H](C)O)C(C)C)C(=O)N[C@@H](CC(C)C)C(=O)N[C@@H](CC(N)=O)C(N)=O [Compound 8, HSDAVFTDNYXRLZKQLXVKZYLNXILN]
interaction with VIPR2 (VIPR2): does not interact substantially with VIPR2

% Activity, cAMP agonist mode, at 1.00E-07 M (block headed Compound ID 9) [1]: 0.4% | % Activity, cAMP agonist mode, at 1.00E-08 M (block headed Compound ID 9) [1]: 1.2% | % Activity, cAMP agonist mode, at 1.00E-09 M (block headed Compound ID 9) [1]: 0.4% | % Activity, cAMP agonist mode, at 1.00E-10 M (block headed Compound ID 9) [1]: -1.1% | % Activity, cAMP agonist mode, at 1.00E-11 M (block headed Compound ID 9) [1]: 0.9% | % Activity, cAMP agonist mode, at 1.00E-12 M (block headed Compound ID 9) [1]: 0.4% | % Activity, cAMP agonist mode, at 5.00E-07 M (block headed Compound ID 9) [1]: 1.9% | % Activity, cAMP agonist mode, at 5.00E-08 M (block headed Compound ID 9) [1]: 0.9% | % Activity, cAMP agonist mode, at 5.00E-09 M (block headed Compound ID 9) [1]: 0.1% | % Activity, cAMP agonist mode, at 5.00E-10 M (block headed Compound ID 9) [1]: 1.5% | % Inhibition, cAMP antagonist mode against EC80 VIP, at 1.00E-07 M [1]: 6.5% | % Inhibition, cAMP antagonist mode against EC80 VIP, at 1.00E-08 M [1]: 9.4% | % Inhibition, cAMP antagonist mode against EC80 VIP, at 1.00E-09 M [1]: 6.5% | % Inhibition, cAMP antagonist mode against EC80 VIP, at 1.00E-10 M [1]: 4.2% | % Inhibition, cAMP antagonist mode against EC80 VIP, at 1.00E-11 M [1]: 8.7% | % Inhibition, cAMP antagonist mode against EC80 VIP, at 1.00E-12 M [1]: 3.7% | % Inhibition, cAMP antagonist mode against EC80 VIP, at 5.00E-07 M [1]: 8.4% | % Inhibition, cAMP antagonist mode against EC80 VIP, at 5.00E-08 M [1]: 6.2% | % Inhibition, cAMP antagonist mode against EC80 VIP, at 5.00E-09 M [1]: 10.9% | % Inhibition, cAMP antagonist mode against EC80 VIP, at 5.00E-10 M [1]: 12.7% | Mean RLU, cAMP agonist mode, at 1.00E-07 M (block headed Compound ID 9) [1]: 8920 RLU | Mean RLU, cAMP agonist mode, at 1.00E-08 M (block headed Compound ID 9) [1]: 9560 RLU | Mean RLU, cAMP agonist mode, at 1.00E-09 M (block headed Compound ID 9) [1]: 8560 RLU | Mean RLU, cAMP agonist mode, at 1.00E-10 M (block headed Compound ID 9) [1]: 7560 RLU | Mean RLU, cAMP agonist mode, at 1.00E-11 M (block headed Compound ID 9) [1]: 3280 RLU | Mean RLU, cAMP agonist mode, at 1.00E-12 M (block headed Compound ID 9) [1]: 9300 RLU | Mean RLU, cAMP agonist mode, at 5.00E-07 M (block headed Compound ID 9) [1]: 10200 RLU | Mean RLU, cAMP agonist mode, at 5.00E-08 M (block headed Compound ID 9) [1]: 9200 RLU | Mean RLU, cAMP agonist mode, at 5.00E-09 M (block headed Compound ID 9) [1]: 8560 RLU | Mean RLU, cAMP agonist mode, at 5.00E-10 M (block headed Compound ID 9) [1]: 3920 RLU | Mean RLU, cAMP antagonist mode against EC80 VIP, at 1.00E-07 M [1]: 79600 RLU | Mean RLU, cAMP antagonist mode against EC80 VIP, at 1.00E-08 M [1]: 77500 RLU | Mean RLU, cAMP antagonist mode against EC80 VIP, at 1.00E-09 M [1]: 79500 RLU | Mean RLU, cAMP antagonist mode against EC80 VIP, at 1.00E-10 M [1]: 81300 RLU | Mean RLU, cAMP antagonist mode against EC80 VIP, at 1.00E-11 M [1]: 78000 RLU | Mean RLU, cAMP antagonist mode against EC80 VIP, at 1.00E-12 M [1]: 81700 RLU | Mean RLU, cAMP antagonist mode against EC80 VIP, at 5.00E-07 M [1]: 64200 RLU | Mean RLU, cAMP antagonist mode against EC80 VIP, at 5.00E-08 M [1]: 79500 RLU | Mean RLU, cAMP antagonist mode against EC80 VIP, at 5.00E-09 M [1]: 76300 RLU | Mean RLU, cAMP antagonist mode against EC80 VIP, at 5.00E-10 M [1]: 74900 RLU
Molecule: VIP analogue Compound 8 (…XRLZKQLXVKZYLNXILN) (peptide)

EC50, cAMP agonist mode [2]: 0.028 µM
B1: VIP analogue Compound 8 (HSDAVFTDNYXRLZKQLXVKZYLNXILN) (peptide)
peptide: HSDAVFTDNY[ACPC]RL[APC]KQL[ACPC]VK[APC]YLN[ACPC]ILN
modifications: ends and bridges not checked

Reference: patent publication US9782454B2 (LONGEVITY BIOTECH, INC., priority 2010, dated 2017)
